By Kd is commonly meant the free concentration of one partner at which half of the binding sites on the other are occupied at equilibrium, for simple one-to-one binding. As a reminder, the koff is the rate constant with which the complex falls apart. A lower koff goes with a long-lived complex. As a reminder, the kon is a measure of how fast the partners come together. A higher kon goes with fast association.

One assay has as its target T1, hANGPTL3(17-169)-mFc (human).
T1 chain: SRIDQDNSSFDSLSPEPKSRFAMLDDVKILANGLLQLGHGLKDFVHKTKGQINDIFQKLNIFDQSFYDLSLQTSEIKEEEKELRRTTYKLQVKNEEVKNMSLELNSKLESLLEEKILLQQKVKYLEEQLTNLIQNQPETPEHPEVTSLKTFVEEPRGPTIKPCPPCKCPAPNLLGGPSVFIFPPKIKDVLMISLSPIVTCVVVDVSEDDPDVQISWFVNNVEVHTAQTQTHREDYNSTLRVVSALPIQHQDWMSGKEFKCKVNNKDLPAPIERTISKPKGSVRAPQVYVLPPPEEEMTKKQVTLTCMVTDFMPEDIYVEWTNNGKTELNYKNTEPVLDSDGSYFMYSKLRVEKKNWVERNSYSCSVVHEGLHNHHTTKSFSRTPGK
The assay can be described thus: cell-based or functional assay.

The target in the next assay is T2, hANGPTL3(17-460)-His (human, UniProt Q9Y5C1 17-460).
T2 construct: Bought protein (R&D Systems); also called full-length mature human ANGPTL3 with a C-terminal decahistidine tag; Human ANGPTL3 (17-460)-His
T2 sequence: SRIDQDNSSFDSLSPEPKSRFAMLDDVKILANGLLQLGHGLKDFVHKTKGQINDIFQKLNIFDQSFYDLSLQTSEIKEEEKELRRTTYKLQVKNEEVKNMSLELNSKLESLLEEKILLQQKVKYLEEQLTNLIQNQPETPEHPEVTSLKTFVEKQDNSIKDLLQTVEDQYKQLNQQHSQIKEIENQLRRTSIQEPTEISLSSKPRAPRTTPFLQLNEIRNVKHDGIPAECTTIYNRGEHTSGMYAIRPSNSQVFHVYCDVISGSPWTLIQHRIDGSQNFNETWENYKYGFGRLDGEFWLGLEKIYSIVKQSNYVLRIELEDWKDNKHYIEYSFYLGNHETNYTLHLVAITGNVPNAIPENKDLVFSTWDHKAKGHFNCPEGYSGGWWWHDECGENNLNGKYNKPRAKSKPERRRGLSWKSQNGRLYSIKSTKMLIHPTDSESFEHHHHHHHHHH
The assay can be described thus: SPR Biacore, antigen captured, 37C, pH 7.4, HBS-EP. The method, then:
(§1) All kinetic binding experiments were performed at 25° C. or 37° C. on a BIACORE™ T200 label-free molecular interaction instrument (GE Healthcare) using a CM5 sensor chip. Briefly, an antigen capture surface was generated by covalently coupling either an anti-mouse IgG-specific antibody (anti-mFc; GE Healthcare; catalog #BR-1008-38) or an anti-pentahistidine-specific antibody (Qiagen; catalog #34660) to the surface of a CM5 sensor chip using a standard amine coupling method.
(In general: In SPR one partner is held on a chip, and binding of the other changes the refractive index at the surface.)

A further assay has as its target T3, hANGPTL3(17-170)-His (human, UniProt Q9Y5C1 17-170).
T3 construct: also called N-terminal coiled-coil domain of hANGPTL3 with a C-terminal hexahistidine tag; Human ANGPTL3 (17-170)-His
T3 sequence: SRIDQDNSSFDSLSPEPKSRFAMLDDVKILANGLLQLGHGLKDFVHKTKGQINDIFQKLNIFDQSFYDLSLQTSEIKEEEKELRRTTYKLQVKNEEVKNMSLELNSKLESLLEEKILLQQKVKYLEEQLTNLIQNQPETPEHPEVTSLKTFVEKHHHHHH
Kind of assay: SPR Biacore, antigen captured, 37C, pH 7.4, HBS-EP. The protocol:
as §1

The next assay has as its target T4, MfANGPTL3(17-170)-mmH (Macaca fascicularis).
T4 construct: also called N-terminal coiled-coil domain of ANGPTL3 from Macaca fascicularis with myc-myc-hexahistidine tag; Monkey ANGPTL3 (17-170)-mmH
T4 chain: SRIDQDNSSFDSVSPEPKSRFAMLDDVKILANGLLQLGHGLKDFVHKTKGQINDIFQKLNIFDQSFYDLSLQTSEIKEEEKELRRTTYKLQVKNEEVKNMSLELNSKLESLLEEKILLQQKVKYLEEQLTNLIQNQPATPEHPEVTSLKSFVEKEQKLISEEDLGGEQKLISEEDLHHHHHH
The assay can be described thus: SPR Biacore, antigen captured, 37C, pH 7.4, HBS-EP. The method, then: as §1

Another assay has as its target T5, rANGPTL3(17-240)-mmH (Rattus norvegicus).
T5 construct: also called N-terminal coiled-coil domain of ANGPTL3 from Rattus norvegicus with myc-myc-hexahistidine tag
T5 chain: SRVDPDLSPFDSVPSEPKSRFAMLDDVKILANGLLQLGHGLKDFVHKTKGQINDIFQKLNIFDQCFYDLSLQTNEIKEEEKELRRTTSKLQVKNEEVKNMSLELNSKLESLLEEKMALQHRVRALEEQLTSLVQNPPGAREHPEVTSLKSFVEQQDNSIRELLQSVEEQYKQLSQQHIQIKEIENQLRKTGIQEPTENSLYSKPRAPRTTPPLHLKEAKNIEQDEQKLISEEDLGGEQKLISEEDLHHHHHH
Kind of assay: SPR Biacore, antigen captured, 37C, pH 7.4, HBS-EP. The protocol:
as §1

The target of the next assay is T6, mANGPTL3(17-455)-His (Mus musculus, UniProt Q9R182 17-455).
T6 construct: Bought protein (R&D Systems); also called full-length mature ANGPTL3 from Mus musculus with a C-terminal decahistidine tag
T6 sequence: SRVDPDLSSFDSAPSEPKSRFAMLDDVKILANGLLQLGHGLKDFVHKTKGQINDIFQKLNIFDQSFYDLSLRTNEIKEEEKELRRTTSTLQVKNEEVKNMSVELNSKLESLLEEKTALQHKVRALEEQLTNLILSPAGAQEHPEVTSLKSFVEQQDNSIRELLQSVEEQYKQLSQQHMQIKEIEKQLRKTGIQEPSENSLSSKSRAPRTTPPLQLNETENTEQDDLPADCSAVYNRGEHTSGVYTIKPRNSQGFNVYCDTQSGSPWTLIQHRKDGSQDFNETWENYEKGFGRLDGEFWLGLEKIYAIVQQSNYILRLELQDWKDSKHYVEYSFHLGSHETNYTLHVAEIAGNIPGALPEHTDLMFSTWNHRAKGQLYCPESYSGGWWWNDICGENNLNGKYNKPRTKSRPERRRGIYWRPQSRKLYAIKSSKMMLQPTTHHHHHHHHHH
The assay can be described thus: SPR Biacore, antigen captured, 37C, pH 7.4, HBS-EP. The method, then:
as §1

B1: H4H1276S (antibody, IgG4, V domains shown)
VH: EVQLVESGGGVIQPGGSLRLSCAASGFTFDDYAMNWVRQGPGKGLEWVSAISGDGGSTYYADSVKGRFTISRDNSKNSLYLQMNSLRAEDTAFFYCAKDLRNTIFGVVIPDAFDIWGQGTMVTVSS
VL: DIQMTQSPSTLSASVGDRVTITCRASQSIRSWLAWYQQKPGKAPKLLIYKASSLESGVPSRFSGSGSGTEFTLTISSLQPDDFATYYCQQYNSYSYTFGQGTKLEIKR
Take B1: in the assay with hANGPTL3(17-169)-mFc, the “IC50, LPL bioassay, 80 nM constant hANGPTL3(17-169)-mFc” value amounted to 33 nM. In addition, the Kd with hANGPTL3(17-460)-His came out at 1.29 nM; with hANGPTL3(17-170)-His, 1.52 nM; in the assay with MfANGPTL3(17-170)-mmH, 0.625 nM; with rANGPTL3(17-240)-mmH, 0.94 nM; in the assay with mANGPTL3(17-455)-His, 0.408 nM. Besides, the koff in the assay with hANGPTL3(17-460)-His is 0.000812 s⁻¹; with hANGPTL3(17-170)-His, 0.00241 s⁻¹; with MfANGPTL3(17-170)-mmH it was 0.00117 s⁻¹; with rANGPTL3(17-240)-mmH it was 0.00193 s⁻¹; with mANGPTL3(17-455)-His, 0.000791 s⁻¹. Further, the kon with hANGPTL3(17-460)-His was determined as 632000 M⁻¹ s⁻¹; in the assay with hANGPTL3(17-170)-His, 1.59e+06 M⁻¹ s⁻¹; with MfANGPTL3(17-170)-mmH, 1.87e+06 M⁻¹ s⁻¹; in the assay with rANGPTL3(17-240)-mmH, 2.05e+06 M⁻¹ s⁻¹; with mANGPTL3(17-455)-His, 1.94e+06 M⁻¹ s⁻¹. Besides, the t1/2 in the assay with hANGPTL3(17-460)-His stood at 14.2 min; with hANGPTL3(17-170)-His it was 4.8 min; in the assay with MfANGPTL3(17-170)-mmH, 9.9 min; with rANGPTL3(17-240)-mmH, 6 min; in the assay with mANGPTL3(17-455)-His it was 14.6 min.

For the origin of these results see patent US20150197564A1 (Regeneron, published 2015).
